Experiments:
Format in all cases: cell-based
PFA-fixed Jurkats cells [1] = assay: RNA yield and DV200 from PFA-fixed Jurkats after Subtilisin A with or without compound (1) (Example 2); details: 4% PFA-fixed Jurkats, 50 mM compound (1) where present
Experimental: Materials and Methods: A protease stock solution of 100 mg/ml Subtilisin A from Bacillus licheniformis (Sigma-Aldrich, cat. #P5380) was prepared in H2O and stored at −20° C. A stock solution of the un-fixing agent of 100 mM compound (1) in 30 mM Tris-HCl, 1 mM EDTA, pH 6.8, was prepared and stored at room temperature. Dissociated single cells (Jurkats) were pelleted by 400 g centrifugation for 5 minutes and the supernatant removed. A fixing reagent solution of 4% PFA in PBS with 0.2 U/μL Qiagen RNAse Inhibitor (Qiagen, cat. #129916) was added to the pelleted cells and the mixture incubated at 4° C. overnight. The resulting fixed cells were quenched with 10% FBS in PBS and spun down for 5 minutes at 500 g, 4° C. 150,000 fixed cells were washed once in PBS then resuspended in 100 μL, 30 mM Tris-HCL, 1 mM EDTA, pH 6.8. RNAse Inhibitor was added to the fixed cell solution together with one of the following: (a) 5 mg/mL Subtilisin A; or (b) 5 mg/mL Subtilisin A and 50 mM compound (1). The fixed cell solution with Subtilisin A protease and with or without the un-fixing agent of compound (1) was allowed to incubate at 8° C. for 2 hours, followed by 15 minutes at 70° C. shaking continuously at 300 rpm on an Eppendorf Thermomixer. The resulting cell solutions were spun down for 5 minutes at 500 g, 4° C., and the supernatant and pellet fractions were collected separately. RNA extraction of the collected fractions was carried out using Qiagen 96 Kit (Qiagen, cat. #74181), bulk RNA sequencing, and/or single cell 3′ sequencing. Control samples of fresh cells, fresh cells with un-fixing conditions, and fixed cells without un-fixing treatment were also prepared and RNA extracted. RNA yield was assessed by Qubit HS Assay (Q32855) and yield and DV200 quality metric was assessed by Agilent 4200 High Sensitivity ScreenTape (5067-5579).

PFA-fixed Jurkats cells [2] = assay: RNA yield and DV200 from PFA-fixed Jurkats after Subtilisin A with or without compounds (1) and/or (8) (Example 4); details: 5 mg/mL Subtilisin A
Experimental: A. Protease preparation: A protease stock solution of 100 mg/ml Subtilisin A from Bacillus licheniformis (Sigma-Aldrich, cat. #P5380) was prepared in H2O and stored at −20° C.
(§1) B. Un-fixing agent stock solutions: A stock solution of the un-fixing agent of 100 mM compound (1) in 30 mM Tris-HCl, 1 mM EDTA, pH 6.8, was prepared and stored at room temperature. A stock solution of the un-fixing agent of 100 mM compound (8) in 30 mM Tris-HCl, 1 mM EDTA, pH 6.8, was prepared and stored at room temperature.
(§2) C. Fixed cell preparation: Dissociated single cells (Jurkats) were pelleted by 400 g centrifugation for 5 minutes and the supernatant removed. A fixing reagent solution of 4% PFA in PBS with 0.2 U/μL Qiagen RNAse Inhibitor (Qiagen, cat. #129916) was added to the pelleted cells and the mixture incubated at 4° C. overnight. The resulting fixed cells were quenched with 10% FBS in PBS and spun down for 5 minutes at 500 g, 4° C. 150,000 fixed cells were washed once in PBS then resuspended in 100 μL, 30 mM Tris-HCL, 1 mM EDTA, pH 6.8.
D. Cell un-fixing/protease treatment: RNAse Inhibitor was added to the fixed cell solution together with one of the following: (a) 5 mg/mL Subtilisin A protease; (b) 5 mg/mL Subtilisin A protease and 50 mM compound (1); (c) 5 mg/mL Subtilisin A protease and 50 mM compound (8); (d) 5 mg/mL Subtilisin A protease and 25 mM compound (8) and 25 mM compound (1).
The fixed cell solutions treated with Subtilisin A protease and with or without the un-fixing agents of compounds (1) and/or (8) were allowed to incubate under one of the following conditions: (1) 8° C. for 2 hours; (2) 8° C. for 2 hours, followed by 15 minutes at 70° C. shaking continuously at 300 rpm on an Eppendorf Thermomixer; (3) 53° C. for 45 min; or (4) 53° C. for 45 min followed by 15 minutes at 70° C. shaking continuously at 300 rpm on an Eppendorf Thermomixer. The resulting cell solutions were spun down for 5 minutes at 500 g, 4° C., and the supernatant and pellet fractions were collected separately.
(§3) E. RNA quantitation: RNA extraction of the collected fractions was carried out using Qiagen 96 Kit (Qiagen, cat. #74181), bulk RNA sequencing, and/or single cell 3′ sequencing. Control samples of fresh cells, fresh cells with un-fixing conditions, and fixed cells without un-fixing treatment were also prepared and RNA extracted. RNA yield was assessed by Qubit HS Assay (Q32855) and yield and DV200 quality metric was assessed by Agilent 4200 High Sensitivity ScreenTape (5067-5579).

PFA-fixed Jurkats cells [3] = assay: Bulk un-fixing, then single-cell partition barcoding, 3'-RT and cDNA electropherogram (Example 7); details: Fresh cells partitioned with the RT assay reagent mix and the protease
Experimental: A. Protease preparation: A stock solution of 20 mg/mL Proteinase K (Sigma-Aldrich, cat. #AM258) was stored at −20° C.
B. Un-fixing agent of compound (8) stock solutions: A stock solution of the un-fixing agent of 100 mM compound (8) in 30 mM Tris-HCl, 1 mM EDTA, pH 6.8, was prepared and stored at room temperature.
as §2
D. Cell un-fixing/protease treatment: RNAse Inhibitor was added to the fixed cell solution together with 0.1 mg/mL Proteinase K and 50 mM compound (8). The fixed cell solution treated with the protease and compounds (8) were allowed to incubate at 53° C. for 45 min. The resulting cell solutions were spun down for 5 minutes at 500 g, 4° C., and the supernatant and pellet fractions were collected separately. […]

PFA-fixed Jurkats cells [4] = assay: RNA yield and DV200 from PFA-fixed Jurkats after Proteinase K with or without compounds (1) and/or (8) (Example 5); details: 4% PFA-fixed Jurkats, 53° C./45 min
Experimental: A. Protease preparation: A stock solution of 20 mg/mL Proteinase K (Sigma-Aldrich, cat. #_AM258) was stored at −20° C.
as §1, §2
D. Cell un-fixing/protease treatment: RNAse Inhibitor was added to the fixed cell solution together with one of the following: (a) 0.1 mg/mL Proteinase K protease; (b) 0.2 mg/mL Proteinase K protease; (c) 0.4 mg/mL Proteinase K protease; (d) 0.2 mg/mL Proteinase K protease and 50 mM compound (1); (e) 0.4 mg/mL Proteinase K protease and 50 mM compound (1); (f) 0.2 mg/mL Proteinase K protease and 50 mM compound (8); (g) 0.4 mg/mL Proteinase K protease and 50 mM compound (8); (h) 0.2 mg/mL Proteinase K protease and 25 mM compound (8) and 25 mM compound (1); or (i) 0.4 mg/mL Proteinase K protease and 25 mM compound (8) and 25 mM compound (1). The fixed cell solutions treated with Proteinase K protease and with or without the un-fixing agents of compounds (1) and/or (8) were allowed to incubate at 53° C. for 45 min. The resulting cell solutions were spun down for 5 minutes at 500 g, 4° C., and the supernatant and pellet fractions were collected separately.
as §3

[5] = 5 mg/mL Subtilisin A, 8° C./2 hr
[6] = un-fixing agent 50 mM (25 mM each in combination), 8° C./2 hr then 70° C./15 min
[7] = un-fixing agent 50 mM (25 mM each in combination), 53° C./45 min
[8] = Proteinase K at 0.2 mg/mL, un-fixing agent 50 mM (25 mM each in combination)
[9] = Proteinase K at 0.4 mg/mL, un-fixing agent 50 mM (25 mM each in combination)

B1: Subtilisin A: protease Subtilisin A from Bacillus licheniformis (Sigma-Aldrich, cat. #P5380) (protein, UniProt P00780 106-379, looked up)
Subtilisin Carlsberg: AQTVPYGIPLIKADKVQAQGFKGANVKVAVLDTGIQASHPDLNVVGGASFVAGEAYNTDGNGHGTHVAGTVAALDNTTGVLGVAPSVSLYAVKVLNSSGSGSYSGIVSGIEWATTNGMDVINMSLGGASGSTAMKQAVDNAYAKGVVVVAAAGNSGSSGNTNTIGYPAKYDSVIAVGAVDSNSNRASFSSVGAELEVMAPGAGVYSTYPTNTYATLNGTSMASPHVAGAAALILSKHPNLSASQVRNRLSSTATYLGSSFYYGKGLINVEAAAQ
- Pellet Qubit Avg (SD), RNA yield (PFA-fixed Jurkats cells [1]; [5]): 21
- Pellet Tapestation Avg (SD), RNA yield (PFA-fixed Jurkats cells [1]; [5]): 21
- Supernatant Tapestation Avg (SD), RNA yield (PFA-fixed Jurkats cells [1]; [5]): 8
- RNA recovery relative to fresh cells (PFA-fixed Jurkats cells [1]; Subtilisin A, 2 h at 8° C.): about 7%
- Pellet Qubit Avg (SD), RNA yield (PFA-fixed Jurkats cells [2]; 8° C./2 hr): 108.4
- Pellet Tapestation Avg (SD), RNA yield (PFA-fixed Jurkats cells [2]; 8° C./2 hr): 49
- Supernatant Qubit Avg (SD), RNA yield (PFA-fixed Jurkats cells [2]; 8° C./2 hr): 0
- Pellet Qubit Avg (SD), RNA yield (PFA-fixed Jurkats cells [2]; [6]): 106
- Pellet Tapestation Avg (SD), RNA yield (PFA-fixed Jurkats cells [2]; [6]): 58
- Supernatant Qubit Avg (SD), RNA yield (PFA-fixed Jurkats cells [2]; [6]): 398
- Supernatant Tapestation Avg (SD), RNA yield (PFA-fixed Jurkats cells [2]; [6]): 231
- Pellet Qubit Avg (SD), RNA yield (PFA-fixed Jurkats cells [2]; [7]): 144
- Pellet Tapestation Avg (SD), RNA yield (PFA-fixed Jurkats cells [2]; [7]): 244
- Supernatant Qubit Avg (SD), RNA yield (PFA-fixed Jurkats cells [2]; [7]): 245
- Supernatant Tapestation Avg (SD), RNA yield (PFA-fixed Jurkats cells [2]; [7]): 252

B2: Proteinase K: the protease, Proteinase K (Sigma-Aldrich, cat. #AM258) (protein, UniProt P06873 106-384, looked up)
Proteinase K: AAQTNAPWGLARISSTSPGTSTYYYDESAGQGSCVYVIDTGIEASHPEFEGRAQMVKTYYYSSRDGNGHGTHCAGTVGSRTYGVAKKTQLFGVKVLDDNGSGQYSTIIAGMDFVASDKNNRNCPKGVVASLSLGGGYSSSVNSAAARLQSSGVMVAVAAGNNNADARNYSPASEPSVCTVGASDRYDRRSSFSNYGSVLDIFGPGTSILSTWIGGSTRSISGTSMATPHVAGLAAYLMTLGKTTAASACRYIADTANKGDLSNIPFGTVNLLAYNNYQA
- cDNA electropherogram profile from single-cell 3'-RT (FIG. 11B) (PFA-fixed Jurkats cells [3]): no mound profile
- Pellet Qubit Avg (SD), RNA yield (PFA-fixed Jurkats cells [4]; Proteinase K at 0.1 mg/mL): 1350
- Pellet Tapestation Avg (SD), RNA yield (PFA-fixed Jurkats cells [4]; Proteinase K at 0.1 mg/mL): 1804.5
- Supernatant Qubit Avg (SD), RNA yield (PFA-fixed Jurkats cells [4]; Proteinase K at 0.1 mg/mL): 321.3
- Supernatant Tapestation Avg (SD), RNA yield (PFA-fixed Jurkats cells [4]; Proteinase K at 0.1 mg/mL): 152.55
- Pellet Qubit Avg (SD), RNA yield (PFA-fixed Jurkats cells [4]; [8]): 107.82
- Pellet Tapestation Avg (SD), RNA yield (PFA-fixed Jurkats cells [4]; [8]): 127.8
- Supernatant Qubit Avg (SD), RNA yield (PFA-fixed Jurkats cells [4]; [8]): 251.1
- Supernatant Tapestation Avg (SD), RNA yield (PFA-fixed Jurkats cells [4]; [8]): 121.05
- Pellet Qubit Avg (SD), RNA yield (PFA-fixed Jurkats cells [4]; [9]): 106.2
- Pellet Tapestation Avg (SD), RNA yield (PFA-fixed Jurkats cells [4]; [9]): 76.725
- Supernatant Qubit Avg (SD), RNA yield (PFA-fixed Jurkats cells [4]; [9]): 266.4
- Supernatant Tapestation Avg (SD), RNA yield (PFA-fixed Jurkats cells [4]; [9]): 125.55

Source: US12241890B2, “Methods for generating barcoded nucleic acid molecules using fixed cells” (10X Genomics, Inc., priority 2019, dated 2025)
